Source: patent publication US20180155451A1 (published 2018)
Where a chain is given by its changes, count along the chain named. In names and notes the source's numbering stands.

B1: GpH7-TA4/GpH7-B3/GpL16-k0 (antibody, human IgG1, kappa)
heavy 1: QVQLVQSGAEVKKPGASVTVSCKASGYTFTDYEMHWIRQPPGEGLEWIGAIDPKTGDTAYSESFQDRVTLTADKSTSTAYMELSSLTSEDTAVYYCTRFYSYTYWGQGTLVTVSSASTKGPSVFPLAPSSKSTSGGTAALGCLVKDYFPEPVTVSWNSGALTSGVHTFPAVLQSSGLYSLSSVVTVPSSSLGTQTYICNVNHKPSNTKVDKKVEPKSCDKTHTCPPCPAPEYLWGPSVFLFPPKPKDTLMISRTPEVTCVVVDVSHEDPEVKFNWYVDGVEVHNAKTKPREEQYNSTYRVVSVLTVLHQDWLNGKEYKCKVSNKALPAPIEKTISKAKGQPREPQVYTLPPSRKELTKNQVSLTCLVKGFYPSDIAVEWESNGQPENNYKTTPPVLDSDGSFFLYSKLTVDKSRWQQGNVFSCSVMHEALHNRYTQKSLSLSP
heavy 2: not shown
light: DIVMTQSPLSLPVTPGEPASISCQASESLVHSNRNTYLHWYLQKPGQSPQLLIYKVSNRFSGVPDRFSGSGSGTDFTLKISRVEAEDVGVYYCSQNTHVPPTFGQGTKVEIERTVAAPSVFIFPPSDEQLKSGTASVVCLLNNFYPREAKVQWKVDNALQSGNSQESVTEQDSKDSTYSLSSTLTLSKADYEKHKVYACEVTHQGLSSPVTKSFNRGEC
notes: H1 L234Y and G236W
B2: GpH7-TA5/GpH7-B3-03-20W/GpL16-k0 (antibody, human IgG1, kappa)
heavy 1: B1 heavy 1 with W234G, S296A
heavy 2: not shown
light: B1 light
notes: H1 L234Y and S298A; H2 G236W
B3: GpH7-TA5/GpH7-B3/GpL16-k0 (antibody, human IgG1, kappa)
heavy 1: B1 heavy 1 with W234G, S296A
heavy 2: not shown
light: B1 light
notes: H1 L234Y and S298A
B4: GpH7-TA6/GpH7-B3-01-15Y/GpL16-k0 (antibody, human IgG1, kappa)
heavy 1: B1 heavy 1 with Y232L, S296A
heavy 2: not shown
light: B1 light
notes: H1 G236W and S298A; H2 L234Y
B5: GpH7-TA6/GpH7-B3/GpL16-k0 (antibody, human IgG1, kappa)
heavy 1: B1 heavy 1 with Y232L, S296A
heavy 2: not shown
light: B1 light
notes: H1 G236W and S298A
B6: GpH7-TA7/GpH7-B3/GpL16-k0 (antibody, human IgG1, kappa)
heavy 1: B1 heavy 1 with S296A
heavy 2: not shown
light: B1 light
notes: H1 L234Y, G236W and S298A
B7: GpH7-B3 variant P271_02A/GpL16-k0 (Ho Ab) (antibody, human IgG1, kappa)
heavy: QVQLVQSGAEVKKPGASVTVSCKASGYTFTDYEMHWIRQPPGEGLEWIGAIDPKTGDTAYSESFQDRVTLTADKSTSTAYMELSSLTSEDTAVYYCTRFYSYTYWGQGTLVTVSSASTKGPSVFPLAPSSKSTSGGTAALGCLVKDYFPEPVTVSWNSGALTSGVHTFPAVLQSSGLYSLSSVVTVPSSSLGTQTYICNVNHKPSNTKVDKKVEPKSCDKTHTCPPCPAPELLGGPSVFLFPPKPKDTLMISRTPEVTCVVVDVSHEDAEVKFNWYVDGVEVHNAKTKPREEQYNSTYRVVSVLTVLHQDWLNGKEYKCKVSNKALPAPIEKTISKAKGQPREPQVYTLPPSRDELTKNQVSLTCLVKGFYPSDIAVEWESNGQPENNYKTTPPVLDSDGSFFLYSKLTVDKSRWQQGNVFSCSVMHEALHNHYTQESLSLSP
light: B1 light
notes: Ho Ab: alteration in both H chains
B8: GpH7-B3 variant A327_09D/GpL16-k0 (Ho Ab) (antibody, human IgG1, kappa)
heavy: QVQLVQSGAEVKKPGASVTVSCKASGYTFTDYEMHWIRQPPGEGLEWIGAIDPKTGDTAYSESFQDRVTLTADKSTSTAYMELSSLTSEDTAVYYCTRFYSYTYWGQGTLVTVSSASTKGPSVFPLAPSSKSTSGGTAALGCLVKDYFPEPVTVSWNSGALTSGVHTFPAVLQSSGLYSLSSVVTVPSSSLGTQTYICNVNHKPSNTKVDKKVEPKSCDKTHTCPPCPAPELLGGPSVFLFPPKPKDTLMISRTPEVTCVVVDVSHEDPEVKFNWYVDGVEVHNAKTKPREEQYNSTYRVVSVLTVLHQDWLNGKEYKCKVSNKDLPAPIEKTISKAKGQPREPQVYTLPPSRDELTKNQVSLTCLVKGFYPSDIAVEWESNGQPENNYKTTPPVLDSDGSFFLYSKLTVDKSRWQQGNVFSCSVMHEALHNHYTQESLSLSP
light: B1 light
notes: as for B7
B9: GpH7-B3 variant A330_08L/GpL16-k0 (Ho Ab) (antibody, human IgG1, kappa)
heavy: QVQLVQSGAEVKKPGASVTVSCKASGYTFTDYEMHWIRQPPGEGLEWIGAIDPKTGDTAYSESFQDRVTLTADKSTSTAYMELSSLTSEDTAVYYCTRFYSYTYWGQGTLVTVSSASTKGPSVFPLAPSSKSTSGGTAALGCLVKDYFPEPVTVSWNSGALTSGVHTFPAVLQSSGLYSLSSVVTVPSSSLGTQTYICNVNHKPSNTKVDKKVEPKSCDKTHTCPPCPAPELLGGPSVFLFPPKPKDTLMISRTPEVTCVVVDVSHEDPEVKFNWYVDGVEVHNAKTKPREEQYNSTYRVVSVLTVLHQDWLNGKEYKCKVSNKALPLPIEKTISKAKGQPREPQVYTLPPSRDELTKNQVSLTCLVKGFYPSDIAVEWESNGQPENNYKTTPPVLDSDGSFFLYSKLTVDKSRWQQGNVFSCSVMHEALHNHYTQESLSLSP
light: B1 light
notes: Ho Ab: alteration in both H chains; also called GpH7-B3-20-08L/GpL16-k0
B10: GpH7-B3 variant A330_09D/GpL16-k0 (Ho Ab) (antibody, human IgG1, kappa)
heavy: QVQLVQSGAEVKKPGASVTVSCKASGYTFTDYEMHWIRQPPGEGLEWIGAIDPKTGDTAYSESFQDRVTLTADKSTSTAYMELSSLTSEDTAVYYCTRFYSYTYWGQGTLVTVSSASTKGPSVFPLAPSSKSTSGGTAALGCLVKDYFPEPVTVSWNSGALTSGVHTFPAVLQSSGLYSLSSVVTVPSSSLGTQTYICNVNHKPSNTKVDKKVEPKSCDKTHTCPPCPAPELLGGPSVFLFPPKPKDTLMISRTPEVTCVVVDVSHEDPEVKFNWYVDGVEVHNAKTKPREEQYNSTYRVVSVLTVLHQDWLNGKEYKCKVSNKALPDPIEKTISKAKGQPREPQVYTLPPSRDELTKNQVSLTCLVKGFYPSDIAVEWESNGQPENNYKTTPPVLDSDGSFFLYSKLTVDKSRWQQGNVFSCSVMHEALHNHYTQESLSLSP
light: B1 light
notes: as for B7
B11: GpH7-B3 variant A330_14T/GpL16-k0 (Ho Ab) (antibody, human IgG1, kappa)
heavy: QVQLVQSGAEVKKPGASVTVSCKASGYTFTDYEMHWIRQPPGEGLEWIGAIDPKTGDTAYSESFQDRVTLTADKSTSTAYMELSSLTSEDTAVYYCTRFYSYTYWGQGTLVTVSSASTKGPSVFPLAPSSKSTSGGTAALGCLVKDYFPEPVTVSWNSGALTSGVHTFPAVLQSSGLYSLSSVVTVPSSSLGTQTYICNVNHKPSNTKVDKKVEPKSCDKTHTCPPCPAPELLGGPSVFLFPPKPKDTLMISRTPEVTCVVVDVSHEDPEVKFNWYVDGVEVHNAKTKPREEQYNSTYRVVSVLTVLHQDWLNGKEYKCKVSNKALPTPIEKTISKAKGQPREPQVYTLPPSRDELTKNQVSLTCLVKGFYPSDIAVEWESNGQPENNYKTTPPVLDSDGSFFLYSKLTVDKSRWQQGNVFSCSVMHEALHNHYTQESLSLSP
light: B1 light
notes: as for B7
B12: GpH7-B3 variant E269_04F/GpL16-k0 (Ho Ab) (antibody, human IgG1, kappa)
heavy: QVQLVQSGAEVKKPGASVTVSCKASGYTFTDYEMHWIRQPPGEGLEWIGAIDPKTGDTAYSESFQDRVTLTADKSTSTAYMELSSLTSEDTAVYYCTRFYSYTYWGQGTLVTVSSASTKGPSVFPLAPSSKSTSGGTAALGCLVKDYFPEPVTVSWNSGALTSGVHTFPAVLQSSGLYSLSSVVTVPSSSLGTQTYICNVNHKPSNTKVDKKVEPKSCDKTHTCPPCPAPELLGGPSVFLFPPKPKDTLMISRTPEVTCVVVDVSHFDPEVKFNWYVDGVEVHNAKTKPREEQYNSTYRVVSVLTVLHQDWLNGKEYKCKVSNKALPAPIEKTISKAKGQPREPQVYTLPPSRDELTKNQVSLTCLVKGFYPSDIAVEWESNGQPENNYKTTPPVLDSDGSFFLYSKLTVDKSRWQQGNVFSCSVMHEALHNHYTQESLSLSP
light: B1 light
notes: as for B7
B13: GpH7-B3 variant E269_06M/GpL16-k0 (Ho Ab) (antibody, human IgG1, kappa)
heavy: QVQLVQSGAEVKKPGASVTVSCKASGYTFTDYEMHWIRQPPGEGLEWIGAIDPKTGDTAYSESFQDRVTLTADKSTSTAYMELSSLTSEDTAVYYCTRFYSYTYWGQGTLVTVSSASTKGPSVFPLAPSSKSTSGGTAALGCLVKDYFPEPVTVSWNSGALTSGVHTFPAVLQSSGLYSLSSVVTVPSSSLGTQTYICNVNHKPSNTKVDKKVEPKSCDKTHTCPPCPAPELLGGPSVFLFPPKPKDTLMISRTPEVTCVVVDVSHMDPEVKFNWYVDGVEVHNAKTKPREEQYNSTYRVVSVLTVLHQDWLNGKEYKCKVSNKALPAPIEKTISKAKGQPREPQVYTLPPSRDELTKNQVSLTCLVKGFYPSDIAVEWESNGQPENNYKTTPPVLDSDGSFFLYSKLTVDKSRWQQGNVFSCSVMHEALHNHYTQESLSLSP
light: B1 light
notes: as for B7
B14: GpH7-A5/GpH7-B3 variant A330_11K/GpL16-k0 (antibody, human IgG1, kappa)
heavy 1: not shown
heavy 2: not shown
light: B1 light
notes: Heterodimerized IgG1, mutation in the GpH7-B3 chain only; also called He Ab
B15: GpH7-A5/GpH7-B3 variant A330_12R/GpL16-k0 (antibody, human IgG1, kappa)
heavy 1: not shown
heavy 2: not shown
light: B1 light
notes: as for B14
B16: GpH7-A5/GpH7-B3 variant A330_16H/GpL16-k0 (antibody, human IgG1, kappa)
heavy 1: not shown
heavy 2: not shown
light: B1 light
notes: as for B14
B17: GpH7-A5/GpH7-B3 variant A330_19Q/GpL16-k0 (antibody, human IgG1, kappa)
heavy 1: not shown
heavy 2: not shown
light: B1 light
notes: as for B14
B18: GpH7-A5/GpH7-B3 variant D270_10E/GpL16-k0 (antibody, human IgG1, kappa)
heavy 1: not shown
heavy 2: not shown
light: B1 light
notes: as for B14
B19: GpH7-A5/GpH7-B3 variant H268_04F/GpL16-k0 (antibody, human IgG1, kappa)
heavy 1: not shown
heavy 2: not shown
light: B1 light
notes: as for B14
B20: GpH7-A5/GpH7-B3 variant I332_03V/GpL16-k0 (antibody, human IgG1, kappa)
heavy 1: not shown
heavy 2: not shown
light: B1 light
notes: as for B14
B21: GpH7-A5/GpH7-B3 variant I332_13S/GpL16-k0 (antibody, human IgG1, kappa)
heavy 1: not shown
heavy 2: not shown
light: B1 light
notes: as for B14
B22: GpH7-A5/GpH7-B3 variant I332_16H/GpL16-k0 (antibody, human IgG1, kappa)
heavy 1: not shown
heavy 2: not shown
light: B1 light
notes: as for B14
B23: GpH7-A5/GpH7-B3 variant I332_18N/GpL16-k0 (antibody, human IgG1, kappa)
heavy 1: not shown
heavy 2: not shown
light: B1 light
notes: as for B14
B24: GpH7-A5/GpH7-B3 variant I332_19Q/GpL16-k0 (antibody, human IgG1, kappa)
heavy 1: not shown
heavy 2: not shown
light: B1 light
notes: as for B14
B25: GpH7-A5/GpH7-B3 variant K326_12R/GpL16-k0 (antibody, human IgG1, kappa)
heavy 1: not shown
heavy 2: not shown
light: B1 light
notes: as for B14
B26: GpH7-A5/GpH7-B3 variant Q295_05P/GpL16-k0 (antibody, human IgG1, kappa)
heavy 1: not shown
heavy 2: not shown
light: B1 light
notes: as for B14
B27: GpH7-A5/GpH7-B3 variant Q295_07I/GpL16-k0 (antibody, human IgG1, kappa)
heavy 1: not shown
heavy 2: not shown
light: B1 light
notes: as for B14
B28: GpH7-A5/GpH7-B3 variant S324_02A/GpL16-k0 (antibody, human IgG1, kappa)
heavy 1: not shown
heavy 2: not shown
light: B1 light
notes: as for B14
B29: GpH7-A5/GpH7-B3 variant S324_04F/GpL16-k0 (antibody, human IgG1, kappa)
heavy 1: not shown
heavy 2: not shown
light: B1 light
notes: as for B14
B30: GpH7-A5/GpH7-B3 variant S324_09D/GpL16-k0 (antibody, human IgG1, kappa)
heavy 1: not shown
heavy 2: not shown
light: B1 light
notes: as for B14
B31: GpH7-A5/GpH7-B3 variant S324_10E/GpL16-k0 (antibody, human IgG1, kappa)
heavy 1: not shown
heavy 2: not shown
light: B1 light
notes: as for B14
B32: GpH7-A5/GpH7-B3 variant S324_15Y/GpL16-k0 (antibody, human IgG1, kappa)
heavy 1: not shown
heavy 2: not shown
light: B1 light
notes: as for B14
B33: GpH7-A5/GpH7-B3 variant S324_16H/GpL16-k0 (antibody, human IgG1, kappa)
heavy 1: not shown
heavy 2: not shown
light: B1 light
notes: as for B14
B34: GpH7-A5/GpH7-B3 variant S324_20W/GpL16-k0 (antibody, human IgG1, kappa)
heavy 1: not shown
heavy 2: not shown
light: B1 light
notes: as for B14
B35: GpH7-A5/GpH7-B3 variant Y296_04F/GpL16-k0 (antibody, human IgG1, kappa)
heavy 1: not shown
heavy 2: not shown
light: B1 light
notes: as for B14
B36: GpH7-A5/GpH7-B3 variant Y296_09D/GpL16-k0 (antibody, human IgG1, kappa)
heavy 1: not shown
heavy 2: not shown
light: B1 light
notes: as for B14
B37: GpH7-A5/GpH7-B3 variant Y296_16H/GpL16-k0 (antibody, human IgG1, kappa)
heavy 1: not shown
heavy 2: not shown
light: B1 light
notes: as for B14
B38: GpH7-A5/GpH7-B3 variant Y296_18N/GpL16-k0 (antibody, human IgG1, kappa)
heavy 1: not shown
heavy 2: not shown
light: B1 light
notes: as for B14
B39: GpH7-A5/GpH7-B3 variant Y300_06M/GpL16-k0 (antibody, human IgG1, kappa)
heavy 1: not shown
heavy 2: not shown
light: B1 light
notes: as for B14
B40: GpH7-A5/GpH7-B3 variant Y300_07I/GpL16-k0 (antibody, human IgG1, kappa)
heavy 1: not shown
heavy 2: not shown
light: B1 light
notes: as for B14
B41: GpH7-A5/GpH7-B3 variant Y300_08L/GpL16-k0 (antibody, human IgG1, kappa)
heavy 1: not shown
heavy 2: not shown
light: B1 light
notes: as for B14

Molecular target: T1, FcγRIIIa extracellular domain with C-terminal His tag (human, UniProt P08637 17-208)
T1 construct: extracellular domain; also called FcgRIIIa; 3a; not shown: His tag at the C terminus
T1 sequence (P08637 17-208): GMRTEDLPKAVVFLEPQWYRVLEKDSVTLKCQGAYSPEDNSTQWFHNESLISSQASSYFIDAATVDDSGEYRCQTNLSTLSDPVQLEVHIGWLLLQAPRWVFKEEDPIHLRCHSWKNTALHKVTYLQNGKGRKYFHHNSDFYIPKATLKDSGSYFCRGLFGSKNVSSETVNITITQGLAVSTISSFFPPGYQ
Test: SPR relative binding; GpH7-A5/GpH7-B3/GpL16-k0 = 100
In short: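 Read-out is FcγR-binding activity plus dissociation constant from SPR, with receptor flowed over antibody held by antigen peptide on the chip. Running buffer HBS-EP+ at 25° C; peptide amine-coupled to CM5 or biotinylated onto SA.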

Binder | FcγRIIIa BINDING ACTIVITY
B1 | 168 % of control
B2 | 97 % of control
B3 | 208 % of control
B4 | 103 % of control
B5 | 228 % of control
B6 | 201 % of control

Molecular target: T2, FcγRIa extracellular domain with C-terminal His tag (human, UniProt P12314 16-292)
T2 construct: extracellular domain; Expressed in FreeStyle293 cells; analyte in Biacore; also called FcgRI; FcgRIa
T2 sequence (P12314 16-292): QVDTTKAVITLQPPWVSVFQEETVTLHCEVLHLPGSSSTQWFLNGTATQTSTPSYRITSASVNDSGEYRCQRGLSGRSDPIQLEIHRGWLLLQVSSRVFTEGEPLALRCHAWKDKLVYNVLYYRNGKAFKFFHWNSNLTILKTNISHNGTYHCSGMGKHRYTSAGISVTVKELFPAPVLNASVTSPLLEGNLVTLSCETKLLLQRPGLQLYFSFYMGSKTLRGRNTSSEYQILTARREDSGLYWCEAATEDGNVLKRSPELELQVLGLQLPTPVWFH
Test: SPR Biacore, antibody captured, FcγRIa analyte; vs GpH7-B3/GpL16-k0 = 100

Binder | Ho/Con_1a
B7 | 102 relative (control = 100)
B8 | 102 relative (control = 100)
B9 | 106 relative (control = 100)
B10 | 108 relative (control = 100)
B11 | 105 relative (control = 100)
B12 | 102 relative (control = 100)
B13 | 101 relative (control = 100)

Molecular target: T3, FcγRIIb (human, UniProt P31994 43-217)
T3 construct: extracellular domain; also called FcgRIIb; 2b; not shown: His tag attached to the C terminus
T3 sequence (looked up): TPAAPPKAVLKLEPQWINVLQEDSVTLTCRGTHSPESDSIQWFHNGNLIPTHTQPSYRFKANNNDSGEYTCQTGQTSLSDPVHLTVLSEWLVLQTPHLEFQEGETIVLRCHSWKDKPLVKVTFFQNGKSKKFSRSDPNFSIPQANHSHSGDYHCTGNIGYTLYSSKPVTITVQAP
Test: SPR (Biacore), antibody captured, FcγR as analyte; binding relative to GpH7-A5/GpH7-B3/GpL16-k0 = 100

Binder | He/Con_2b [control = 100]
B14 | 95
B15 | 84.8
B16 | 87.6
B17 | 90.8
B18 | 76.5
B19 | 89.6
B20 | 80.7
B21 | 98.4
B22 | 93
B23 | 89.9
B24 | 94.3
B25 | 89.2
B26 | 67.5
B27 | 84.3
B28 | 78.3
B29 | 89.1
B30 | 85.8
B31 | 77.4
B32 | 88.2
B33 | 83.5
B34 | 87.5
B35 | 99.2
B36 | 98.9
B37 | 92.2
B38 | 91.5
B39 | 84.3
B40 | 74.5
B41 | 73.6

Molecular target: T4, FcγRIIa H (human, UniProt P12318 34-217)
T4 construct: extracellular domain; also called FcgRIIa H; FcγRIIa type H; not shown: His tag attached to the C terminus
T4 sequence (looked up): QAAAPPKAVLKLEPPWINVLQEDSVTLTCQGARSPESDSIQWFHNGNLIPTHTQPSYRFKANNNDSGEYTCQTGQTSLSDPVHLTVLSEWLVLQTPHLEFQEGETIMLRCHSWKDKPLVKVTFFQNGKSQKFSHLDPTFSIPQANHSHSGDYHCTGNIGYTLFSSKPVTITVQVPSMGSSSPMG
Test: as above

Binder | He/Con_2aH [control = 100]
B14 | 109
B15 | 108
B16 | 101
B17 | 102
B18 | 102
B19 | 111
B20 | 105
B21 | 110
B22 | 109
B23 | 110
B24 | 108
B25 | 101
B26 | 103
B27 | 102
B28 | 102
B29 | 101
B30 | 106
B31 | 103
B32 | 102
B33 | 102
B34 | 103
B35 | 100
B36 | 104
B37 | 104
B38 | 104
B39 | 105
B40 | 108
B41 | 108
